Measured values: PMC3039130 (Structure (London, England : 1993), 2011)

Molecular target: T1, BirA-tagged, biotinylated mouse JAML ectodomain (Mus musculus, biotin on the BirA-tag (by BirA biotin protein ligase))
T1 chain: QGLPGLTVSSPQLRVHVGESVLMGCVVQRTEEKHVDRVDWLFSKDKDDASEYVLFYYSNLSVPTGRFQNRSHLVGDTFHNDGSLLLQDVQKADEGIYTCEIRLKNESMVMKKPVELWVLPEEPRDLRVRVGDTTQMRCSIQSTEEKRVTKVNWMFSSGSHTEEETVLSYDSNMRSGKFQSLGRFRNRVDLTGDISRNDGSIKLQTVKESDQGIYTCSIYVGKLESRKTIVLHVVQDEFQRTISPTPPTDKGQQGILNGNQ
Assay: SPR

Kd: ~8 nM | koff: ~0.001 s⁻¹
B1: HL4E10 Fab (fragment of the hamster anti-JAML IgG (λ) HL4E10) (Fab, V domains shown)
VH: QVQLKESGPGLLQPSQTLSLTCTVSGISLSDYGVHWVRQAPGKGLEWMGIIGHAGGTDYNSNLKSRVSISRDTSKSQVFLKLNSLQQEDTAMYFCARHFYTYFDVWGQGIQVTVSS
VL: SYTLTQPPLVSVALGQKATITCSGDKLSDVYVHWYQQKAGQAPVLVIYEDNRRPSGIPDHFSGSNSGNMATLTISKAQAGDEADYYCQSWDGTNSAWVFGSGTKVTVL
